Values quoted from earlier work as cited in paper PMC10746543, “Design principles for cyclin K molecular glue degraders” (Nature Chemical Biology, 2023).

Biological target: CDK12-cyclin K (Homo sapiens) (UniProt Q9NYV4)
Sequence (Q9NYV4 whole entry, chain 1 of 2): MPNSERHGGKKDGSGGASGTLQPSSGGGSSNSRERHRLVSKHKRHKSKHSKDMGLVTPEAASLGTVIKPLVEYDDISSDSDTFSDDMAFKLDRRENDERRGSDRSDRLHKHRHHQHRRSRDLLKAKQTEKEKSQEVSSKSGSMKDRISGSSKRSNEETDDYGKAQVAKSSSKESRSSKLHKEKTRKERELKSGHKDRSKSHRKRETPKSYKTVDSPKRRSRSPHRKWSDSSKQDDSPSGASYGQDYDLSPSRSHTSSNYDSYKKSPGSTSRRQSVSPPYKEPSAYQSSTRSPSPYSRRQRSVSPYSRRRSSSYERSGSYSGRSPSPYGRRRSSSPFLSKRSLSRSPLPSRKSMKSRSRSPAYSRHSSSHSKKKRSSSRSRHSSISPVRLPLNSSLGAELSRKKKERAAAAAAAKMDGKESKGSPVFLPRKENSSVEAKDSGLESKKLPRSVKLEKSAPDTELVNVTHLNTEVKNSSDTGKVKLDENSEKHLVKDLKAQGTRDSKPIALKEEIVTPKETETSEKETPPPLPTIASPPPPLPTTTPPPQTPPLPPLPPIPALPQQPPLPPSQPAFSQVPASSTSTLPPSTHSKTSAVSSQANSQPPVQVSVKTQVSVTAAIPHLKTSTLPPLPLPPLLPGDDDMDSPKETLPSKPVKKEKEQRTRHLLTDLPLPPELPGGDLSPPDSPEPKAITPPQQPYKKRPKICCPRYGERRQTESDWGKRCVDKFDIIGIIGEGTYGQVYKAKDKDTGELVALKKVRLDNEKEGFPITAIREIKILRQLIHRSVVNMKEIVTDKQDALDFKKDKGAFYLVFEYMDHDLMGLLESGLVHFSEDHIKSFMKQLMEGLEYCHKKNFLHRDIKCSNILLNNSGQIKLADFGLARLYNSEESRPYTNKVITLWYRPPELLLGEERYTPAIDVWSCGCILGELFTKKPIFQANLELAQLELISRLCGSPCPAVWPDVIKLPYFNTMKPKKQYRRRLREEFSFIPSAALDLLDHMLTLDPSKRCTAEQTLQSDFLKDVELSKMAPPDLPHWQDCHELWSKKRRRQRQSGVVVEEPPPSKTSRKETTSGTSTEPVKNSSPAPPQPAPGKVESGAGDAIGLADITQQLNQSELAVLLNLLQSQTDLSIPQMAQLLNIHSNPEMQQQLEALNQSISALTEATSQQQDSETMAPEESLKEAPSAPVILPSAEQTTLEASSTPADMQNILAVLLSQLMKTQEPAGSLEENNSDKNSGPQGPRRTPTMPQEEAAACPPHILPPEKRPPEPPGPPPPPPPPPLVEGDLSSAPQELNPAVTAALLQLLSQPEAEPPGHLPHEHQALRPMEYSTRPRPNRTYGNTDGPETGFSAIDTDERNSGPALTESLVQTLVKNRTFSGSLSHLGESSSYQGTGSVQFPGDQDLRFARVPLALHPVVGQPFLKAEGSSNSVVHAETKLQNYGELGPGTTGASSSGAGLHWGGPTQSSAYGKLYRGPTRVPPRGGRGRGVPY
Sequence (O75909 whole entry, chain 2 of 2, further chain): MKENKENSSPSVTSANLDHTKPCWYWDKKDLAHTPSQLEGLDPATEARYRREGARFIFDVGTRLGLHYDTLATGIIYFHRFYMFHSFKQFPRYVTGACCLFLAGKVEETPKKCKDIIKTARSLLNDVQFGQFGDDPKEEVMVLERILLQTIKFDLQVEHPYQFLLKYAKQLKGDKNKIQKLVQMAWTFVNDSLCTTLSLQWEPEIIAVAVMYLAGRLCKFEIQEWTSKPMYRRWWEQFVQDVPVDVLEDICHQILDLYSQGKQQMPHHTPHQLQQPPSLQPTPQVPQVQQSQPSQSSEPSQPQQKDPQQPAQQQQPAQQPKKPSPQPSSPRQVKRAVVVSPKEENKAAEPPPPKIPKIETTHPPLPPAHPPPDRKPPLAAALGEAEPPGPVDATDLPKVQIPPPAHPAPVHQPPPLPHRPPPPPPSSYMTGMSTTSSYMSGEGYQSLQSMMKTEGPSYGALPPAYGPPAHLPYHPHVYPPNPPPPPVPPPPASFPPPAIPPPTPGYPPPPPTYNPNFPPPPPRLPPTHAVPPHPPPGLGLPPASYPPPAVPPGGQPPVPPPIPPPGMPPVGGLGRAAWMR

DDB1, sequence (Q16531 2-1140): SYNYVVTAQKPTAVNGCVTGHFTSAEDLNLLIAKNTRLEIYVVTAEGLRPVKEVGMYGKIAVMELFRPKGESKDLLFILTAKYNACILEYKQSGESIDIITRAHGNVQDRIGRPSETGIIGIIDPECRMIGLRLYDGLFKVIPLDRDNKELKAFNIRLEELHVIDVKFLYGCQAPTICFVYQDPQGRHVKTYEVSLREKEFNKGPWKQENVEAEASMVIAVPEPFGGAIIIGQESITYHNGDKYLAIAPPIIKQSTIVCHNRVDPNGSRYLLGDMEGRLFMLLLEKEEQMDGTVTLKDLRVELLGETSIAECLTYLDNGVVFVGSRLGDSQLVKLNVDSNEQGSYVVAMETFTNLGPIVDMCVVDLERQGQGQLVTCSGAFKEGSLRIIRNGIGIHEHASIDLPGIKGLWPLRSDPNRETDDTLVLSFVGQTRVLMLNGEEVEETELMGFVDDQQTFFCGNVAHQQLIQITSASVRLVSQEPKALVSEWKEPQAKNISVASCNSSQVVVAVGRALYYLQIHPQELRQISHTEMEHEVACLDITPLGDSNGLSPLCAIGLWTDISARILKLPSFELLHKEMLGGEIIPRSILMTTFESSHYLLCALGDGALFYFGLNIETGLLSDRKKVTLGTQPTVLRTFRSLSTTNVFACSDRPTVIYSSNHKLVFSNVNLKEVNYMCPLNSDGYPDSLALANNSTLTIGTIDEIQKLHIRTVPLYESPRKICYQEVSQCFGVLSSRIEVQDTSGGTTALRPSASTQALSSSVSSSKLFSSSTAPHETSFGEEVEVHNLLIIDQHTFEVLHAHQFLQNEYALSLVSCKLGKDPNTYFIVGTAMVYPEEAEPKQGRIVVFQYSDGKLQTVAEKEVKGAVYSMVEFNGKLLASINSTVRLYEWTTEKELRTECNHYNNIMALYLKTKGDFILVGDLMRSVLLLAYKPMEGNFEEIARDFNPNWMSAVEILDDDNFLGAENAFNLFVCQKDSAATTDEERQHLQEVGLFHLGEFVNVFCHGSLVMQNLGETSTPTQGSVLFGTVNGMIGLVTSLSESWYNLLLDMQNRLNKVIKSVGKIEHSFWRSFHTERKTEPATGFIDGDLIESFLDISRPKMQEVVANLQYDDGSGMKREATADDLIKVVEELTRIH

Kd: 50 µM
Substance: DDB1 (from UniProt Q16531)
